Data taken from the supplement of paper PMC9170038.

System: MS2 coat protein
Assay: apparent KD of MS2 coat protein; designed switch direction (-1 OFF switch, 1 ON switch): -1; higher = weaker reporter binding
How it was run: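 For each design, the apparent KD is the median over clusters of curves fitted to normalised cluster fluorescence. Clusters held RNA switches with common flanks, transcribed on Illumina chips by stalled E. coli RNA polymerase. These were titrated with SNAP-549-labelled MS2 coat protein, doubling from 0.7 or 1.5 nM to 3 µM, without input, with 200 uM small-molecule ligand, or with an oligonucleotide input.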

[1] = Eterna round: R95, input ligand: FMN 200 uM
[2] = Eterna round: R95, input ligand: microRNA oligo, concentration not stated
[3] = Eterna round: R95, input ligand: none
[4] = input ligand: microRNA oligo, concentration not stated

Sequence | apparent KD of MS2 coat protein [1] | apparent KD of MS2 coat protein [2] | apparent KD of MS2 coat protein [3] | apparent KD of MS2 coat protein (input ligand: FMN 200 uM) | apparent KD of MS2 coat protein (input ligand: none) | apparent KD of MS2 coat protein [4]
AUAACAAGCUUUUUGUUCGUAGAACAUGAUGCUCGAGUCACAUGAGGAUCACCCAUGUCAUCCAGAUUGAUAGUUGA [JR_SV3TOV2_Sub060] (puzzle: Sensor v3, turn-off variant 2) | 39.5 nM | 51.2 nM | 40.3 nM |  |  | 
AUAACAUGCUGGUGAUCAUACAUGAGGAUCACCCAUGUAACAAGCUUUUUGUUCGUCUUAUAAUUUAAGAUCACCAG [Stov1/7-B2] (Eterna round: R97, puzzle: Sensor, turn-off variant 1) |  |  |  | 21.7 nM | 19.2 nM | 
AUAAUAAAGGAGGAUAUCGAUUCGGAAACGAAUCGAGAAGGUCUAACAUGAGGAUCACCCAUGUUCCUCAAAUA [Mat - Exclusion 6 - Eli Mod - D51] (puzzle: Exclusion 6) | 58 nM | 35.6 nM | 27.9 nM |  |  | 
AUAAUAAAGGAGGAUAUCGUUUCGGAAACGAAACGAGAAGGUCUAACAUGAGGAUCACCCAUGUUCCUCAAAUA [Mat - Exclusion 6 - Eli Mod - D52] (puzzle: Exclusion 6) | 66.4 nM | 33.3 nM | 53.5 nM |  |  | 
AUAAUAGUAGGAGGAUAUCGCAGGAUAUGGGCCUUAAAACAUAACAUGAGGAUCACCCAUGUGCACGAGAAGGCCUGGAAAAUA [Orsolavera] (Eterna round: R96, puzzle: Exclusion NG 2) |  |  |  | 25.7 nM | 18.6 nM | 11.5 nM
AUAAUAUAUGUAGGAUAUCUGCACGUGUAGUGCAGAGAAGGACAUGAGGAUCACCCAUGUAAUUAAGAUCAAUUAUUAAAUUAU [ENG1/4-B3] (Eterna round: R96, puzzle: Exclusion NG 1) |  |  |  | 83.8 nM | 38.1 nM | 35.5 nM
AUAAUAUAUGUAGGAUAUCUGCACGUUUAGUGCAGAGAAGGACAUGAGGAUCACCCAUGUAAUUAAGAUCAAUUAUUAAAUUAU [ENG1/4-B2] (Eterna round: R96, puzzle: Exclusion NG 1) |  |  |  | 59.5 nM | 40.8 nM | 29.5 nM
AUAAUGUAAGGAUAUCAGUCGACUAGCCUCGGCUAGUCGACUGAGAAGGUACAUGAGGAUCACCCAUGUAGAUC [E4/19-A2] (Eterna round: R97, puzzle: Exclusion 4) |  |  |  | 352 nM | 47.8 nM | 
AUAAUGUAAGGAUAUCAGUCGACUAGCGAUAGCUAGUCGACUGAGAAGGUACAUGAGGAUCACCCAUGUGAUUA [E4/10-A4] (Eterna round: R97, puzzle: Exclusion 4) |  |  |  | 421 nM | 167 nM | 
AUAAUGUAAGGAUAUCAGUCGACUAGCUGCGGCUAGUCGACUGAGAAGGUACAUGAGGAUCACCCAUGUGGUUC [E4/11-A3] (Eterna round: R97, puzzle: Exclusion 4) |  |  |  | 185 nM | 304 nM | 
AUAAUGUAAGGAUAUCAGUCGACUAGCUUCGGCUAGUCGACUGAGAAGGUACAUGAGGAUCACCCAUGUAGAUC [E4/19-A1] (Eterna round: R97, puzzle: Exclusion 4) |  |  |  | 363 nM | 66 nM | 
AUAAUGUAAGGAUAUCAGUCGUACAGCUGCGGCUGUACGACUGAGAAGGUACAUGAGGAUCACCCAUGUGGUCA [E4/9-A3] (Eterna round: R97, puzzle: Exclusion 4) |  |  |  | 324 nM | 694 nM | 
AUAAUGUCAGGAUAUACAUGAGGAUCACCCAUGUUAGAAAGAGAAGAAGAGAAACUAUGUAGAAGGGACAAUAA [Hair Trigger] (puzzle: Exclusion 3) | 43.7 nM | 20.6 nM | 29.1 nM |  |  | 
AUAAUGUCAGGAUAUCAGAAGUUUAACCUCGGUUAAACUUCUGAGAAGGGACAUGAGGAUCACCCAUGUGAUUA [E4/3-B2] (Eterna round: R97, puzzle: Exclusion 4) |  |  |  | 68.4 nM | 950 nM | 
AUAAUGUCAGGAUAUCAGUCGACUAGCUGCGGCUAGUCGACUGAGAAGGGACAUGAGGAUCACCCAUGUAGAUC [E4/18-A3] (Eterna round: R97, puzzle: Exclusion 4) |  |  |  | 244 nM | 992 nM | 
AUAAUGUCAGGAUAUCAGUCGACUAGCUUCGGCUAGUCGACUGAGAAGGGACAUGAGGAUCACCCAUGUAGAUC [E4/18-A1] (Eterna round: R97, puzzle: Exclusion 4) |  |  |  | 267 nM | 1120 nM | 
AUAAUGUCAGGAUAUCAGUCGUACAGCGAUAGCUGUACGACUGAGAAGGGACAUGAGGAUCACCCAUGUGGUCA [E4/6-A4] (Eterna round: R97, puzzle: Exclusion 4) |  |  |  | 13.3 nM | 18.1 nM | 
AUAAUGUCAGGAUAUCAGUCGUACAGCGAUAGCUGUACGACUGAGAAGGGACAUGAGGAUCACCCAUGUGGUUA [E4/7-A4] (Eterna round: R97, puzzle: Exclusion 4) |  |  |  | 169 nM | 1910 nM | 
AUAAUGUCAGGAUAUCAGUCGUACAGCUUCGGCUGUACGACUGAGAAGGGACAUGAGGAUCACCCAUGUGGUCA [E4/6-A1] (Eterna round: R97, puzzle: Exclusion 4) |  |  |  | 61 nM | 50.9 nM | 
AUAAUGUGAGGAUAUCAGUAAGAAUGCCUCGGCAUUCUUACUGAGAAGGCACAUGAGGAUCACCCAUGUGAUUA [E4/4-B2] (Eterna round: R97, puzzle: Exclusion 4) |  |  |  | 596 nM | 182 nM | 
AUAAUUAAUCGAGGAUAUCAGCACGUGUAGUGCUGAGAAGGCGACAUGAGGAUCACCCAUGUGAUCAAUUAAUAUUAAUAUUAU [ENG1/11-C3] (Eterna round: R96, puzzle: Exclusion NG 1) |  |  |  | 1330 nM | 866 nM | 565 nM
AUAAUUAGUUCAGGAUAUCAGCACGUGUAGUGCUGAGAAGGGAACAUGAGGAUCACCCAUGUGAUCAAUAUUAUAAUUUUAAUU [ENG1/12-B3] (Eterna round: R96, puzzle: Exclusion NG 1) |  |  |  | 420 nM | 1190 nM | 925 nM
AUACACUAAGUGAGGAUAUCGAUUUCUUUAAGGAUCGAGAAGGCACAUGAGGAUCACCCAUGUUUGACGUGAAU [JR_BMOE4_Sub096] (puzzle: Brourd's mod of Exclusion 4) |  | 30.3 nM |  |  |  | 
AUACACUGAGGAUAUACAUGAGGAUCACCCAUGUGGAAAGCCUCUGGCGGAACUUCGUGUAGAAGGCAGCCACG [Esatdi] (puzzle: Exclusion 3) | 18 nM | 13.9 nM | 13.4 nM |  |  | 
AUACCACGAGGAUAUCGUCUAUAAUACAUGAGGAUCACCCAUGUUAUAUCUGUAAUGUUUCGAGAAGGCGUGUUUU [JR_E5_Sub083] (puzzle: Exclusion 5) |  | 16.6 nM |  |  |  | 
AUAGAGUCAGGAUAUACAAGAUGAAAGAUAGAUAGAAGAAAGUAGAAGGGACAUGAGGAUCACCCAUGUAAGAA [JR_Exclu4_Sub051] (puzzle: Exclusion 4) | 34.9 nM | 31.7 nM | 36.2 nM |  |  | 
